The results in this text go back to article PMC11970842.

This assay deals with recombinant trypanothione reductase from Leishmania braziliensis (Leishmania braziliensis) (UniProt A4H480).

“crotapotin from Crotalus durissus terrificus venom (natural protein)”: the IC50 of inhibition of LbTR enzymatic activity (reduction of T[S]2, DTNB-coupled, absorbance at 412 nm; 0.04 µM enzyme, crotapotin 0, 100, 150 and 200 µM, 28 °C, pH 7.5) turned out to be 224 μM.
